Test results from patent US20120034160A1 (AbbVie / Abbott, published 2012).

B1: DVD1270 (bispecific antibody, human IgG1, kappa)
heavy: not shown
light: ETTVTQSPSSLSASVGDRVTITCITSTDIDVDMNWYQQKPGKPPKLLISQGNTLRPGVPSRFSSSGSGTDFTFTISSLQPEDFATYYCLQSDNLPLTFGQGTKLEIKRTVAAPDIQMTQSPSSLSASVGDRVTITCRASSGIISYIDWFQQKPGKAPKRLIYATFDLASGVPSRFSGSGSGTDYTLTISSLQPEDFATYYCRQVGSYPETFGQGTKLEIKRTVAAPSVFIFPPSDEQLKSGTASVVCLLNNFYPREAKVQWKVDNALQSGNSQESVTEQDSKDSTYSLSSTLTLSKADYEKHKVYACEVTHQGLSSPVTKSFNRGEC
B2: DVD1268 (bispecific antibody, human IgG1, kappa)
heavy: not shown
light: DTVVTQSPAFLSVTPGEKVTITCITSTDIDVDMNWYQQKPDQPPKLLISQGNTLRPGVPSRFSSSGSGTDFTFTISSLEAEDAATYYCLQSDNLPLTFGQGTKLEIKRTVAAPDIQMTQSPSSLSASVGDRVTITCRASSGIISYIDWFQQKPGKAPKRLIYATFDLASGVPSRFSGSGSGTDYTLTISSLQPEDFATYYCRQVGSYPETFGQGTKLEIKRTVAAPSVFIFPPSDEQLKSGTASVVCLLNNFYPREAKVQWKVDNALQSGNSQESVTEQDSKDSTYSLSSTLTLSKADYEKHKVYACEVTHQGLSSPVTKSFNRGEC
B3: DVD1269 (bispecific antibody, human IgG1, kappa)
heavy: not shown
light: DIQMTQSPSSLSASVGDRVTITCRASSGIISYIDWFQQKPGKAPKRLIYATFDLASGVPSRFSGSGSGTDYTLTISSLQPEDFATYYCRQVGSYPETFGQGTKLEIKRTVAAPDTVVTQSPAFLSVTPGEKVTITCITSTDIDVDMNWYQQKPDQPPKLLISQGNTLRPGVPSRFSSSGSGTDFTFTISSLEAEDAATYYCLQSDNLPLTFGQGTKLEIKRTVAAPSVFIFPPSDEQLKSGTASVVCLLNNFYPREAKVQWKVDNALQSGNSQESVTEQDSKDSTYSLSSTLTLSKADYEKHKVYACEVTHQGLSSPVTKSFNRGEC
B4: DVD1276 (bispecific antibody, human IgG1, kappa)
heavy: not shown
light: DTQVTQSPSSLSASVGDRVTITCITSTDIDVDMNWYQQKPGKPPKLLISQGNTLRPGVPSRFSSSGSGTDFTFTISSLQPEDFATYYCLQSDNLPLTFGQGTKLEIKRTVAAPEIVLTQSPDFQSVTPKEKVTITCRASQDIGSELHWYQQKPDQPPKLLIKYASHSTSGVPSRFSGSGSGTDFTLTINGLEAEDAGTYYCHQTDSLPYTFGPGTKVDIKRTVAAPSVFIFPPSDEQLKSGTASVVCLLNNFYPREAKVQWKVDNALQSGNSQESVTEQDSKDSTYSLSSTLTLSKADYEKHKVYACEVTHQGLSSPVTKSFNRGEC
B5: DVD1273 (bispecific antibody, human IgG1, kappa)
heavy: not shown
light: EIVLTQSPDFQSVTPKEKVTITCRASQDIGSELHWYQQKPDQPPKLLIKYASHSTSGVPSRFSGSGSGTDFTLTINGLEAEDAGTYYCHQTDSLPYTFGPGTKVDIKRTVAAPDIQMTQSPSSLSASVGDRVTITCRASGNIHNYLTWYQQTPGKAPKLLIYNAKTLADGVPSRFSGSGSGTDYTFTISSLQPEDIATYYCQHFWSIPYTFGQGTKLQITRTVAAPSVFIFPPSDEQLKSGTASVVCLLNNFYPREAKVQWKVDNALQSGNSQESVTEQDSKDSTYSLSSTLTLSKADYEKHKVYACEVTHQGLSSPVTKSFNRGEC
B6: DVD1275 (bispecific antibody, human IgG1, kappa)
heavy: not shown
light: EIVLTQSPDFQSVTPKEKVTITCRASQDIGSELHWYQQKPDQPPKLLIKYASHSTSGVPSRFSGSGSGTDFTLTINGLEAEDAGTYYCHQTDSLPYTFGPGTKVDIKRTVAAPDIQMTQSPSSLSASVGDRVTITCRASGNIHNYLTWYQQTPGKAPKLLIYNAKTLADGVPSRFSGSGSGTDYTFTISSLQPEDIATYYCQHFWSIPYTFGQGTKLQITRTVAAPSVFIFPPSDEQLKSGTASVVCLLNNFYPREAKVQWKVDNALQSGNSQESVTEQDSKDSTYSLSSTLTLSKADYEKHKVYACEVTHQGLSSPVTKSFNRGEC
B7: DVD1272 (bispecific antibody, human IgG1, kappa)
heavy: not shown
light: DIQMTQSPSSLSASVGDRVTITCRASGNIHNYLTWYQQTPGKAPKLLIYNAKTLADGVPSRFSGSGSGTDYTFTISSLQPEDIATYYCQHFWSIPYTFGQGTKLQITRTVAAPEIVLTQSPDFQSVTPKEKVTITCRASQDIGSELHWYQQKPDQPPKLLIKYASHSTSGVPSRFSGSGSGTDFTLTINGLEAEDAGTYYCHQTDSLPYTFGPGTKVDIKRTVAAPSVFIFPPSDEQLKSGTASVVCLLNNFYPREAKVQWKVDNALQSGNSQESVTEQDSKDSTYSLSSTLTLSKADYEKHKVYACEVTHQGLSSPVTKSFNRGEC
B8: DVD1274 (bispecific antibody, human IgG1, kappa)
heavy: not shown
light: DIQMTQSPSSLSASVGDRVTITCRASGNIHNYLTWYQQTPGKAPKLLIYNAKTLADGVPSRFSGSGSGTDYTFTISSLQPEDIATYYCQHFWSIPYTFGQGTKLQITRTVAAPEIVLTQSPDFQSVTPKEKVTITCRASQDIGSELHWYQQKPDQPPKLLIKYASHSTSGVPSRFSGSGSGTDFTLTINGLEAEDAGTYYCHQTDSLPYTFGPGTKVDIKRTVAAPSVFIFPPSDEQLKSGTASVVCLLNNFYPREAKVQWKVDNALQSGNSQESVTEQDSKDSTYSLSSTLTLSKADYEKHKVYACEVTHQGLSSPVTKSFNRGEC
B9: DVD1267 (bispecific antibody, human IgG1, kappa)
heavy: not shown
light: DIQMTQSPSSLSASVGDRVTITCRASSGIISYIDWFQQKPGKAPKRLIYATFDLASGVPSRFSGSGSGTDYTLTISSLQPEDFATYYCRQVGSYPETFGQGTKLEIKRTVAAPDTQVTQSPSSLSASVGDRVTITCITSTDIDVDMNWYQQKPGKPPKLLISQGNTLRPGVPSRFSSSGSGTDFTFTISSLQPEDFATYYCLQSDNLPLTFGQGTKLEIKRTVAAPSVFIFPPSDEQLKSGTASVVCLLNNFYPREAKVQWKVDNALQSGNSQESVTEQDSKDSTYSLSSTLTLSKADYEKHKVYACEVTHQGLSSPVTKSFNRGEC
B10: DVD1271 (bispecific antibody, human IgG1, kappa)
heavy: not shown
light: DIQMTQSPSSLSASVGDRVTITCRASSGIISYIDWFQQKPGKAPKRLIYATFDLASGVPSRFSGSGSGTDYTLTISSLQPEDFATYYCRQVGSYPETFGQGTKLEIKRTVAAPETTVTQSPSSLSASVGDRVTITCITSTDIDVDMNWYQQKPGKPPKLLISQGNTLRPGVPSRFSSSGSGTDFTFTISSLQPEDFATYYCLQSDNLPLTFGQGTKLEIKRTVAAPSVFIFPPSDEQLKSGTASVVCLLNNFYPREAKVQWKVDNALQSGNSQESVTEQDSKDSTYSLSSTLTLSKADYEKHKVYACEVTHQGLSSPVTKSFNRGEC

Tests used:
Recombinant Human IL-17 = molecular target: T1, Recombinant Human IL-17 (human, UniProt Q16552 20-155, limits assumed); assay: cell-based or functional assay
T1 sequence (looked up): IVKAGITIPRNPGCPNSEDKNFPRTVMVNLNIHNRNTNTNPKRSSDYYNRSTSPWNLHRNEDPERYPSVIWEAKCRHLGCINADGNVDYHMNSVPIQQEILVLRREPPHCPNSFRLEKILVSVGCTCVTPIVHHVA

Recombinant Human IL-1β = Recombinant Human IL-1β (human, UniProt P01584 117-269); assay: cell-based or functional assay

| Binder | C-terminal VD IL-17 Neutralization Assay EC50 (Recombinant Human IL-17) | N-Terminal VD IL-1β Neutralization Assay EC50 (Recombinant Human IL-1β) | N-terminal VD IL-17 Neutralization Assay EC50 (Recombinant Human IL-17) | C-Terminal VD IL-1β Neutralization Assay EC50 (Recombinant Human IL-1β) |
| --- | --- | --- | --- | --- |
| B1 | 40.7 pM | 265 pM | – | – |
| B2 | 3.4 pM | 146 pM | – | – |
| B3 | – | – | 8.2 pM | > 45000 pM |
| B4 | 1210 pM | 168 pM | – | – |
| B5 | – | – | 1.3 pM | 18400 pM |
| B6 | – | – | 0.6 pM | 1920 pM |
| B7 | 346 pM | 13.9 pM | – | – |
| B8 | 1080 pM | 6.8 pM | – | – |
| B9 | – | – | 10.9 pM | > 40000 pM |
| B10 | – | – | 10.9 pM | > 30000 pM |
